Measured values reported in publication PMC8771830, “Multimerization of the GATA4 transcription factor regulates transcriptional activity and cardiomyocyte hypertrophic response” (International Journal of Biological Sciences, 2022).

Target: the molecule itself
Test: SEC; purified GATA4 on Superdex200 Increase 10/300 GL in 20 mM HEPES-NaOH pH 7.4, 100 mM NaCl; fractions blotted with anti-GATA4

B1: Full length GATA4 produced by E. coli (natural protein)
chain: not shown
notes: GATA4, full length; also called purified GATA4; recombinant GATA4; source: E. coli BL21 DE3, purified (Glutathione-Sepharose 4B, GST removed with HRV3C protease)
stoichiometry N: ~8
